# T1: FlhD4C2 complex (E. coli, UniProt P0A8S9 1-116; P0ABY7 1-192)
# T1 sequence 1: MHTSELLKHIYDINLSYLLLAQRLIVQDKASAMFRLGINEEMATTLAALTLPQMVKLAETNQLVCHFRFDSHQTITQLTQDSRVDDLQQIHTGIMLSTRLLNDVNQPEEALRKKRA
# T1 sequence 2: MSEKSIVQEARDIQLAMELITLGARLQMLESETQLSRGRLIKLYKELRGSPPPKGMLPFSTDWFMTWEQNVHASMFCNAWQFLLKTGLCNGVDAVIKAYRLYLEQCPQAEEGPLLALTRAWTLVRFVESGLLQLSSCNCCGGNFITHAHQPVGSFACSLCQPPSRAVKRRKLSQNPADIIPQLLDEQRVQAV
# T2: DCmut-1 (FlhDC complex with FlhC K42E, K45E) (E. coli, UniProt P0A8S9 1-116; P0ABY7 1-192, K42E | K45E)
# T2 construct: FlhD, E. coli; FlhC, E. coli; Lys42 and Lys45 substituted by Glu; Probably carries the C-terminal His-tag on FlhC as the wild-type complex does; the methods say only that mutants were cloned into pGL01; source: E. coli, purified
# T2 sequence 1: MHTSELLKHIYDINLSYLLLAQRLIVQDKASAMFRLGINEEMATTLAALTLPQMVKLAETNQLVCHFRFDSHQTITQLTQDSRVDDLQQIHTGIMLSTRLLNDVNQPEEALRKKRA
# T2 sequence 2: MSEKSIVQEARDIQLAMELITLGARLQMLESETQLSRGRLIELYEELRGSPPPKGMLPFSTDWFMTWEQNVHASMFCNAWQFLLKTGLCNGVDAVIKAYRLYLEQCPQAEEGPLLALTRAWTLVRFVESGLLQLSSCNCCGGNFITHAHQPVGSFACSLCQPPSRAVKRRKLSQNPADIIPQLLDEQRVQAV
# T3: DCmut-2 (FlhDC complex with FlhC R37E, R39E, K42E, K45E) (E. coli, UniProt P0A8S9 1-116; P0ABY7 1-192, R37E | R39E | K42E | K45E)
# T3 construct: FlhD, E. coli; FlhC, E. coli, four substitutions; Probably carries the C-terminal His-tag on FlhC as the wild-type complex does; the methods say only that mutants were cloned into pGL01; source: E. coli, purified
# T3 sequence 1: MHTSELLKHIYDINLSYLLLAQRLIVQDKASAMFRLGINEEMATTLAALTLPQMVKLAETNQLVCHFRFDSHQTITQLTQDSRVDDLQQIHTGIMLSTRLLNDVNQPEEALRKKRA
# T3 sequence 2: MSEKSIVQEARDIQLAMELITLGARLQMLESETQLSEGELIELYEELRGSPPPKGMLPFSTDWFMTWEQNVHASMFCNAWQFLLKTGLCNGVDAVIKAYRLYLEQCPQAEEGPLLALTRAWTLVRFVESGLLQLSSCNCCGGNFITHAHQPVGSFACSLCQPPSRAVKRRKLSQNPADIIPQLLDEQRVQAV
# B1: YdiV (natural protein, E. coli)
# chain: MKIFLENLYHSDCYFLPIRDNQQVLVGVELITHFSSEDGTVRIPTSRVIAQLTEEQHWQLFSEQLELLKSCQHFFIQHKLFAWLNLTPQVATLLLERDNYAGELLKYPFIELLINENYPHLNEGKDNRGLLSLSQVYPLVLGNLGAGNSTMKAVFDGLFTRVMLDKSFIQQQITHRSFEPFIRAIQAQISPCCNCIIAGGIDTAEILAQITPFDFHALQGCLWPAVPINQITTLVQR
# notes: YdiV, E. coli; the ydiV gene was cloned into pET29b and pGL01; His-tag removal by PPase is stated for prey proteins of the pull-down; The crystal of YdiV alone (3TLQ) was phased with Se-Met-YdiV; also called native YdiV; wild-type YdiV; source: E. coli BL21(DE3), purified (Ni2+-NTA, Source-Q, Superdex 200)
# Legend:
# [1] = target: B1; assay: pull-down; His-tagged bait immobilised on Ni2+-NTA beads, prey with His-tag removed by PPase; 4°C, 30 min; 25 mM Tris-HCl pH 8.0, 100 mM NaCl; eluted with 250 mM imidazole; SDS-PAGE, Coomassie; settings: both partners purified
# [2] = target: T1, FlhD4C2 complex; assay: cell-based or functional assay
# [3] = target: T2, DCmut-1 (FlhDC complex with FlhC K42E, …); assay: pull-down; His-tagged bait immobilised on Ni2+-NTA beads, prey with His-tag removed by PPase; 4°C, 30 min; 25 mM Tris-HCl pH 8.0, 100 mM NaCl; eluted with 250 mM imidazole; SDS-PAGE, Coomassie; settings: both partners purified
# [4] = target: T3, DCmut-2 (FlhDC complex with FlhC R37E, …); assay: as above; settings: both partners purified
# [5] = target: T1, FlhD4C2 complex; assay: SEC; YdiV and FlhD4C2 mixed at molar ratios 5:1, 4:1, 3:1, 2:1 or 1:1 for 10 min at room temperature; Superdex 200; fractions on SDS-PAGE; settings: both partners purified
binding result [1],Binder,further results
binds,"FlhD-His (natural protein, E. coli, FlhD, E. coli; the flhD gene was cloned into pET29b and pGL01; source: E. coli BL21(DE3): co-expressed with YdiV (in lysate); purified as bait for the pull-down) MHTSELLKHIYDINLSYLLLAQRLIVQDKASAMFRLGINEEMATTLAALTLPQMVKLAETNQLVCHFRFDSHQTITQLTQDSRVDDLQQIHTGIMLSTRLLNDVNQPEEALRKKRA",–
binds,"FlhD fragment 1–106aa (domain or fragment, E. coli, UniProt P0A8S9 1-106, looked up, FlhD, E. coli, residues 1-106; also called FlhD (1–106aa); source: E. coli, purified recombinant protein) MHTSELLKHIYDINLSYLLLAQRLIVQDKASAMFRLGINEEMATTLAALTLPQMVKLAETNQLVCHFRFDSHQTITQLTQDSRVDDLQQIHTGIMLSTRLLNDVNQ",–
–,B1,EMSA: DNA binding of FlhD4C2 (49-bp flhB promoter) with 5-fold excess of YdiV and at different molar ratios of YdiV:FlhD4C2 [2]: > 3 molar ratio YdiV:FlhD4C2; binding result [3]: binds; binding result [4]: binds; stoichiometry N [5]: 4 YdiV per FlhD4C2
binds,"FlhD fragment 1–98aa (domain or fragment, E. coli, UniProt P0A8S9 1-98, looked up, FlhD, E. coli, residues 1-98; also called FlhD (1–98aa); source: E. coli, purified recombinant protein) MHTSELLKHIYDINLSYLLLAQRLIVQDKASAMFRLGINEEMATTLAALTLPQMVKLAETNQLVCHFRFDSHQTITQLTQDSRVDDLQQIHTGIMLST",–
binds,"FlhD fragment 1–71aa (domain or fragment, E. coli, UniProt P0A8S9 1-71, looked up, FlhD, E. coli, residues 1-71; also called FlhD (1–71aa); source: E. coli, purified recombinant protein) MHTSELLKHIYDINLSYLLLAQRLIVQDKASAMFRLGINEEMATTLAALTLPQMVKLAETNQLVCHFRFDS",–
binds,"FlhD fragment 1–82aa (domain or fragment, E. coli, UniProt P0A8S9 1-82, looked up, FlhD, E. coli, residues 1-82; also called FlhD (1–82aa); source: E. coli, purified recombinant protein) MHTSELLKHIYDINLSYLLLAQRLIVQDKASAMFRLGINEEMATTLAALTLPQMVKLAETNQLVCHFRFDSHQTITQLTQDS",–

# From paper PMC3510510, “Structural insight of a concentration-dependent mechanism by which YdiV inhibits Escherichia coli flagellum biogenesis and motility” (Nucleic Acids Research, 2012)
